The supplement of paper PMC10567573

B1: MATN2 (parent)
chain: VNVPGSFVCQCYSGYALAEDGKRC
B2: SOAT1 (parent)
chain: VYYIFERLCAPLFRNIKQEPFSAR

Variants of: B1
Assay: protein stability index of a GFP-peptide fusion (GPS, HEK-293T) (PSI 1-6); higher = more stable
Details: c terminus: a fixed tail appended
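Further: lentivirally expressed fusions sorted by FACS into six bins by GFP to DsRed ratio, PSI derived from sequencing read proportions per bin multiplied by bin number.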

Protein stability index of substitutions, site by site:
V3: H 1.81; N 1.73
G14: A 2.37; R 2.81
P4: A 1.87
Q10: K 1.7; R 2.01; H 1.78; L 2.46
S6: G 1.47; D 2.97
G21: V 1.88; T 3.02
F7: Y 2.01
Y12: K 1.96; F 2.54
C24: S 2.14; H 2.9; T 2.13
E19: I 2.77; M 2.33
A18: R 2.38
C9: W 2.21
G5: T 1.87
K22: M 1.23
A16: S 1.84
V8: I 2.21; P 2.28; A 2.16
V1: R 1.37
R23: W 1.64; F 1.69; H 1.62
S13: P 2.47; T 2.34
N2: V 1.25
D20: R 1.58; F 2.57; S 2.02

Variants of: B2
Assay: as above
Details: c terminus: a fixed tail appended

Protein stability index, by site and new letter:
R24: Y 1.88; H 2.48; A 2.27; D 3.13; M 2.64; N 4.22; K 2.42; I 2.73; V 2.57; E 3.4; L 2.79
P11: Q 1.25; F 1.83; A 1.17; K 3.65; N 1.86; E 1.76; G 2.08; H 3.92; W 2.77; L 1.89; Y 1.83; R 2.24; V 2.39; S 1.57; C 1.09; D 1.87; I 2.89
Y3: P 2.12; M 1.77; D 1.45; W 2.93; F 2.75; Q 3.86; A 2.26; E 1.5; H 1.71; N 2.11; V 3.21; K 2.5; G 1.22; I 3; C 3.23; S 3.46
F13: I 2.64; P 3.2; N 3.57; R 4.31; S 2.09; T 4.31; A 1.96; H 2
I16: L 2.61; M 1.75; T 1.58; G 2.33; W 3.96; D 3.95; C 2.46; Y 2.17; A 1.91; K 2.45
L12: F 2.5; T 1.97; K 2.57; N 1.98; H 3.56; Y 2.16; M 2.71; G 2.59; P 5.2; E 2.07; C 2.21; I 3.19
I4: E 1.82; L 2.64; R 3.07; G 1.71; Q 2.65; D 1.55; Y 2.11; W 1.94; P 1.64; M 3.78; S 2.12; K 2.81
Q18: W 2.6; N 1.52; T 1.91; D 2.9; Y 3.88; M 2.92; G 2.28; H 3.42; V 1.88; P 2.92; K 1.37; R 2.62; C 2.19; F 1.28
E19: M 1.88; P 2.76; F 1.58; I 2.6; G 2.86; C 3.4; L 1.52; T 2.27; N 1.47; Y 2.41; H 1.93; A 2.12; Q 3.17; W 2.4; K 2.4; D 2.08
A23: W 3.89; L 2.55; Q 2.02; N 2.53; C 1.65; T 1.42; I 2.1; K 2.41; P 2.21; R 1.9; S 2.8; Y 3.86
R7: M 1.08; W 3.93; Y 2.98; T 1.74; S 4.56; D 4.14; I 5.23; H 2.62
R14: D 3.52; I 2.04; E 1.5; P 2.33; Q 3.82; C 2.71; F 2.56; N 2.44; Y 1.87; A 3.64; T 3.18; K 2.46
F21: S 2.13; Y 2.9; N 1.36; R 2.74; H 1.59; I 2.94; A 2.07; L 1.7; T 2.7; D 2.17; E 2.39; C 1.99; Q 1.77; W 3.02; V 2.97; M 2.64; P 2.26
K17: I 1.47; E 3.03; D 1.76; N 2.87; V 3.1; F 1.74; Y 2.06; R 2.04; C 4.42; M 2.78; Q 2.52
E6: F 3.18; M 2.41; K 2.23; A 2.38; P 1.83; W 2.59; D 3; N 2.65; C 3.08; Y 2.53; T 2.61; R 2.09; L 4.01
Y2: W 2.26; P 1.44; G 1.89; T 2.97; H 2.26; I 3.75; C 1.3; N 1.76; R 1.59; F 2.86; Q 2.42; A 2.52; S 1.87; E 3.36; M 2.83; K 1.5
F5: H 1.56; A 1.68; N 1.49; E 2.49; V 3.45; C 2.46; P 2.6; D 1.95; S 1.97; M 1.9; Y 1.81; R 2.8; I 1.64
C9: T 2.26; R 3.16; I 1.31; K 1.6; N 1.04; F 1.95; L 1.67; S 2.34; W 4.32; G 3.15; P 3.02; H 2.02
N15: M 2.01; V 1.82; W 2.15; C 2.61; G 1.65; E 3.52; F 1.67; L 2.75; A 2.28; K 2.84; Y 1.85; H 2.86; R 2; I 2.5; T 3.46
A10: T 2.74; H 3.56; M 1.39; V 3.16; N 3.54; R 1.53; W 2.4; S 2.39; L 3.17
S22: H 1.92; D 2.88; K 1.96; W 2.91; I 3.73; E 2.61; F 2.66; Q 1.46; N 2.3; A 2.65; M 3.1; T 2.36; Y 3.56; G 2.8
V1: N 2.22; P 1.32; R 2.24; M 2.28; S 2.13; Q 1.32
P20: N 2.53; M 2.49; Q 2.44; G 2.71; S 1.36; I 2.71; A 2.34; K 1.88; T 3.49; V 2.6; Y 4.1; W 2.79; L 2.48
L8: C 1.64; R 2.86; T 2; K 3.25; I 1.62; E 3.97; P 2.29; D 3.16
